Test results from article PMC5788864.

Legend:
[1] = molecular target: Zika virus NS5 RNA-dependent polymerase (RdRp) domain, amino acids 275-903, strain FSS13025, HA-tag (Zika virus strain FSS13025); test: co-IP
[2] = molecular target: Zika virus NS5 methyltransferase (MTase) domain, amino acids 1-264, strain FSS13025, HA-tag (Zika virus strain FSS13025); test: co-IP

B1: interferon regulatory factor 3 (IRF3), endogenous (natural protein)
chain: MGTPKPRILPWLVSQLDLGQLEGVAWVNKSRTRFRIPWKHGLRQDAQQEDFGIFQAWAEATGAYVPGRDKPDLPTWKRNFRSALNRKEGLRLAEDRSKDPHDPHKIYEFVNSGVGDFSQPDTSPDTNGGGSTSDTQEDILDELLGNMVLAPLPDPGPPSLAVAPEPCPQPLRSPSLDNPTPFPNLGPSENPLKRLLVPGEEWEFEVTAFYRGRQVFQQTISCPEGLRLVGSEVGDRTLPGWPVTLPDPGMSLTDRGVMSYVRHVLSCLGGGLALWRAGQWLWAQRLGHCHTYWAVSEELLPNSGHGPDGEVPKDKEGGVFDLGPFIVDLITFTEGSGRSPRYALWFCVGESWPQDQPWTKRLVMVKVVPTCLRALVEMARVGGASSLENTVDLHISNSHPLSLTSDQYKAYLQDLVEGMDFQGPGES
Q: With B1 as the binder, how does the percent of the full-length NS5 binding activity to IRF3 [1] read?
A: 51%

Q: And the percent of the full-length NS5 binding activity to IRF3 [2]?
A: 82%
